Measurements from article doi:10.1101/2022.04.27.489770.

Target: Spt6-YW with a C-terminal 3XFLAG epitope tag (S. cerevisiae) (UniProt P23615)
Test: co-IP

Sequence of UniProt P23615 (P23615 whole entry): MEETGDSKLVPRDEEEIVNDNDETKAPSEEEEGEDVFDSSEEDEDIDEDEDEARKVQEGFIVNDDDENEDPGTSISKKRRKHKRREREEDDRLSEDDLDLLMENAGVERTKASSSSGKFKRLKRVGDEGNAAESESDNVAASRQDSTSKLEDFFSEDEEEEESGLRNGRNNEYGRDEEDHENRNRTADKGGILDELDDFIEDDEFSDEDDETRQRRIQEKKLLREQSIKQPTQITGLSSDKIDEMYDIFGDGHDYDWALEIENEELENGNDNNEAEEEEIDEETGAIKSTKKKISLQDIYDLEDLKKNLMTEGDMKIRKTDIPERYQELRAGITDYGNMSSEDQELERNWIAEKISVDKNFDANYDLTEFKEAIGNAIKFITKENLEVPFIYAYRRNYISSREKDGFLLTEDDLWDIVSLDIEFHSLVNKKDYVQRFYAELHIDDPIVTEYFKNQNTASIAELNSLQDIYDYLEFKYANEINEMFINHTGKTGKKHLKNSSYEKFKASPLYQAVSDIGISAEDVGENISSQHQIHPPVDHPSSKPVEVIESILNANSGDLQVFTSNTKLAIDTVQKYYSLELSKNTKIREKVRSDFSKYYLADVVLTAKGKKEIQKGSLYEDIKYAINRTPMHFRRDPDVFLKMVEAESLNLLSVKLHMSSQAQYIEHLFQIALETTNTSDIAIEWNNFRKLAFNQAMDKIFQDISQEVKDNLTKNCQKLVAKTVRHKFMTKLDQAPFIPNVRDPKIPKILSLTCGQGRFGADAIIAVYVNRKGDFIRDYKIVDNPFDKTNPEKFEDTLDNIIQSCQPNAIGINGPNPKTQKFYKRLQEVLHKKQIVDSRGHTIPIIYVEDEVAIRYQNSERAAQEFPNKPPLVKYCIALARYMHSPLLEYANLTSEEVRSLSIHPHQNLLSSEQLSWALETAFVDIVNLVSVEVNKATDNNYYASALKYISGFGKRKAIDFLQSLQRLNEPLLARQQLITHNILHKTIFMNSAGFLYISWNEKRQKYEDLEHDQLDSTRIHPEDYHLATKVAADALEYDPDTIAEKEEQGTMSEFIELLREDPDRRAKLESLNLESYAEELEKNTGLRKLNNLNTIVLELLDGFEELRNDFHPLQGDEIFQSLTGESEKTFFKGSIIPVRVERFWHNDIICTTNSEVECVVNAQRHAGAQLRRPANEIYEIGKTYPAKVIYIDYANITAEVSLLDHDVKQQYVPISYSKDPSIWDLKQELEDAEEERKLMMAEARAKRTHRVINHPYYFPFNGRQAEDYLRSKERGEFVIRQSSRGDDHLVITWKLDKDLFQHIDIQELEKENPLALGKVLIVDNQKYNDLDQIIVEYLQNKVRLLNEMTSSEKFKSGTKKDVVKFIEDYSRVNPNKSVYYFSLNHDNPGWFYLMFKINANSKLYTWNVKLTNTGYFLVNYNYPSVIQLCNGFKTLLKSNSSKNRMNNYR

B1: Mcm4-V5 (natural protein)
chain: MSQQSSSPTKEDNNSSSPVVPNPDSVPPQLSSPALFYSSSSSQGDIYGRNNSQNLSQGEGNIRAAIGSSPLNFPSSSQRQNSDVFQSQGRQGRIRSSASASGRSRYHSDLRSDRALPTSSSSLGRNGQNRVHMRRNDIHTSDLSSPRRIVDFDTRSGVNTLDTSSSSAPPSEASEPLRIIWGTNVSIQECTTNFRNFLMSFKYKFRKILDEREEFINNTTDEELYYIKQLNEMRELGTSNLNLDARNLLAYKQTEDLYHQLLNYPQEVISIMDQTIKDCMVSLIVDNNLDYDLDEIETKFYKVRPYNVGSCKGMRELNPNDIDKLINLKGLVLRSTPVIPDMKVAFFKCNVCDHTMAVEIDRGVIQEPARCERIDCNEPNSMSLIHNRCSFADKQVIKLQETPDFVPDGQTPHSISLCVYDELVDSCRAGDRIEVTGTFRSIPIRANSRQRVLKSLYKTYVDVVHVKKVSDKRLDVDTSTIEQELMQNKVDHNEVEEVRQITDQDLAKIREVAAREDLYSLLARSIAPSIYELEDVKKGILLQLFGGTNKTFTKGGRYRGDINILLCGDPSTSKSQILQYVHKITPRGVYTSGKGSSAVGLTAYITRDVDTKQLVLESGALVLSDGGVCCIDEFDKMSDSTRSVLHEVMEQQTISIAKAGIITTLNARSSILASANPIGSRYNPNLPVTENIDLPPPLLSRFDLVYLVLDKVDEKNDRELAKHLTNLYLEDKPEHISQDDVLPVEFLTMYISYAKEHIHPIITEAAKTELVRAYVGMRKMGDDSRSDEKRITATTRQLESMIRLAEAHAKMKLKNVVELEDVQEAVRLIRSAIKDYATDPKTGKIDMNLVQTGKSVIQRKLQEDLSREIMNVLKDQASDSMSFNELIKQINEHSQDRVESSDIQEALSRLQQEDKVIVLGEGVRRSVRLNNRV
B1 gave a fold reduction of co-immunoprecipitation against wild-type Spt6 of 2 fold.
